Assay [1] deals with His-CAL1(1-50) (Drosophila melanogaster) (UniProt Q9VEN2). Nature of the assay: SEC-MALS; complexes refolded from recombinant proteins; Superdex 200 increase 10/300 GL, 50 mM HEPES pH 8.0, 2 M NaCl, 1 mM TCEP, 22°C; 100 µl of 1-5 mg/ml. Background: In gel filtration, larger molecules generally elute earlier.
The target in assay [2] is His-CAL1(1-160) (Drosophila melanogaster) (UniProt Q9VEN2). The description is as above.
His-CAL1(1-160) (Drosophila melanogaster), sequence (Q9VEN2 entry or part of it): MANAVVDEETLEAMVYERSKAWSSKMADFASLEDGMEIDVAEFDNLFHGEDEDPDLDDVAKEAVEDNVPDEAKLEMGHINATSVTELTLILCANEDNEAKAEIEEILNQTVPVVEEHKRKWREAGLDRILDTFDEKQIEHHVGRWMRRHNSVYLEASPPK

CENP-A(101-225)-H4 (from UniProt Q9V6Q2 101-225; P84040 1-103) (complex; other documents disagree on this pair), sequence (Q9V6Q2 101-225, one chain of several): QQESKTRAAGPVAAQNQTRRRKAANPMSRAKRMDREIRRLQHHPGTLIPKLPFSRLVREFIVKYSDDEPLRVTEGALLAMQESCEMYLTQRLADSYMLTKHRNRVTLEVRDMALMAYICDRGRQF
CENP-A(101-225)-H4 (from UniProt Q9V6Q2 101-225; P84040 1-103) (complex), sequence (Q9V6Q2 101-225, one chain of several): as above
His-CAL1(1-50) (Drosophila melanogaster), sequence (Q9VEN2 entry or part of it): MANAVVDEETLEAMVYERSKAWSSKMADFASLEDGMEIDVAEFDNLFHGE
CENP-A(144-225)-H4, sequence (Q9V6Q2 144-225, one chain of several): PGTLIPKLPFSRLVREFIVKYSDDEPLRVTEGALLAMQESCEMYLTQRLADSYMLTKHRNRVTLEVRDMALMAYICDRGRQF

As to “CENP-A(101-225)-H4 (from UniProt Q9V6Q2 101-225; P84040 1-103) (complex)”, the stoichiometry N (CAL1:CENP-A:H4 = 1:1:1) in assay [1] worked out at 1. Consider “CENP-A(101-225)-H4 (from UniProt Q9V6Q2 101-225; P84040 1-103) (complex; other documents disagree on this pair)”, for which the stoichiometry N (CAL1:CENP-A:H4 = 1:1:1) in assay [2] is 1. Same read-out and setting: with “CENP-A(144-225)-H4 (from UniProt Q9V6Q2 144-225; P84040 1-103) (complex; other documents disagree on this pair)” the figure was 1.
